Experimental data: patent US20240425828

Columns and labels:
[1] = target: Prototype foamy virus integrase (PFV IN) wild type, tetrameric intasome (Prototype foamy virus) (UniProt P14350); settings: smTIRF lifetime at physiological buffer; searches 1.6 kb; integration rare
[2] = target: Prototype foamy virus integrase (PFV IN) wild type, tetrameric intasome (Prototype foamy virus) (UniProt P14350); settings: smTIRF FRET, stalling at gap; 110 mM NaCl, 2 mM MgSO4, 24 C

Substance	binding [1]	binding (% of search events with integration) [2]
23 kb naked linear DNA	2.1 s	–
60 bp target DNA with 1 or 2 base gap	–	20
